Source: US20090297524A1 (DOMANTIS, published 2009)

B1: DOM.94 (other)
VH: EVQLLESGGGLVQPGGSLRLSCAASGFTFELYPMSWVRQAPGKGLEWVSTISPTGLLTYYADSVKGRFTISRDNSKNTLYLQMNSLRAEDTAVYYCAKFKRSGKTDDTNFDYWGQGTLVTVSS
notes: VH dAb
B2: DOM-15 (other)
VH: EVQLLESGGGLVQPGGSLRLSCAASGFTFEEYVMSWVRQAPGKGLEWVSTISPIGLTTYYADSVKGRFTISRDNSKNTLYLQMNSLRAEDTAVYYCAEFPLIILPDFDYWGQGTLVTVSS
notes: VH dAb
B3: DOM.97 (other)
VH: EVQLLESGGGLVQPGGSLRLSCAASGFTFEEYGMSWVRQAPGKGLEWVSTISPIGVTTYYADSVKGRFTISRDNSKNTLYLQMNSLRAEDTAVYYCAKNAYDRKSNFDYWGQGTLVTVSS
notes: VH dAb
B4: DOM.157 (other)
VL: DIQMTQSPSSLSASVGDRVTITCRASQNIGEDLEWYQQKPGNAPKLLIYSASHLQSGVPSRFSGSGSGTDFTLTISSLQPEDFATYYCQQYSSYPVTFGQGTKVEIKR
notes: Vk dAb
B5: DOM.162 (other)
VL: DIQMTQSPSSLSASVGDRVTITCRASQDISDDLEWYQQKPGKAPKLLIYNSSFLQSGVPSRFSGSGSGADFTLTISSLQPEDFATYYCQQYHSLPVTFGQGTKVEIKR
notes: Vk dAb
B6: DOM.161 (other)
VL: DIQMTQSPSSLSASVGDRVTITCRASQDIDSDLEWYQQKPGKAPMLLIYSSSDLQSGVPSRFSGSGSGTDFTLTISSLQPEDFATYYCQQYHSLPVTFGQGTKVEIKR
notes: Vk dAb
B7: DOM.160 (other)
VL: DIQMTQSPSSLSASVGDRVTITCRASQDIEADLEWYQQKPGKAPKLLIYHSSELQSGVPSRFSGSGSGTDFTLTISSLQPEDFATYYCQQYHMSPVTFGQGTKVEIKR
notes: Vk dAb
B8: DOM.158 (other)
VL: DIQMTQSPSSLSASVGDRVTITCRASQPIDEDLEWYQQKPGNAPKLLIYSASYLQSGVPSRFSGSGSGTDFTLTISRLQPEDFATYYCQQYHLLPATFGQGTKVEIKR
notes: Vk dAb
B9: DOM.163 (other)
VL: DIQMTQSPSSLSASVGDRVTITCRASQDIEGNLEWYQQKPGKAPKLLIYDSSQLQSGVPSRFSGSGSGTDFTLTISSLQPEDFATYYCQQYHHLPTTFGQGTKVEIKR
notes: Vk dAb
B10: DOM.164 (other)
VL: DIQMTQSPSSLSASVGDRVTITCRASQSIDTDLEWYQQKPGKAPKLLIYDGSWLQSGVPSRFSGSGSGTDFTLTISSLQPEDFATYYCQQYRWIPVTFGQGTKVEIKR
notes: Vk dAb
B11: DOM.159 (other)
VL: DIQMIQSPSSLSASVGDRVTITCRASQDINEDLEWYQQKPGKAPKLLIYNASMLQSGVPSRFSGSGSGTDFTLTISSLQPKDFATYYCQQYHTNPTTFGQGTKVEIKR
notes: Vk dAb
B12: DOM.175 (other)
VL: DIQMTQSPSSLSASVGDRVTITCRASQPISGGLRWYQQKPGKAPKLLIYSTSMLQSGVPSRFSGSGSGTDFTLTISSLQPEDFATYYCQQLYSAPYTFGQGTKVEIKR
notes: Vk dAb
B13: DOM.98 (other)
VH: EVQLLESGGGLVQPGGSLRLSCAASGFTFDRYVMVWVRQAPGKDLEWVSGITPSGRRTYYADSVKGRFTISRDNSKDTLYLQMNSLRAEDTAVYYCAKVLGRHFDPLLPSFDYWGQGTLVTVSS
notes: VH dAb
B14: DOM.92 (other)
VH: EVQLLESGGGLVQPGGSLRLSCAASGFTFVDYPMGWVRQAPGKGLEWVSTISTGGFSTYYADSVKGRFTISRDNSKNTLYLQMNSLRAEDTAVYYCAKARYYYLSQIKNFDYWGQGTLVTVSS
notes: VH dAb
B15: DOM.95 (other)
VH: EVQLLESGGGLVQPGGSLRLSCAASGFTFREYDMLWVRQAPGKGLEWVSTIVGDGNGTYYADSVKGRFTISRDNSKNTLYLQMNSLRAEDTAVYYCAKQDRQFDYWGQGTLVTVSS
notes: VH dAb
B16: DOM.93 (other)
VH: EVQLLESGGGLVQPGGSLRLSCAASGFTFDIYGMTWVRQAPGKGLEWVSSISPLGLVTYYADPVKGRFTISRDNSKNTLYLQMNSLRAEDTAVYYCAKLKEHGDVPFDYWGQGTLVTVSS
notes: VH dAb
B17: DOM-11 (other)
VH: EVQLLESGGGLVQPGGSLRLSCAASGFTFGDYEMSWVRQAPGKGLEWVSGIDGEGSDTYYADSVKGRFTISRDNSKNTLYLQMNSLRAEDTAVYYCAKPGRSFDYWGQGTLVTVSS
notes: VH dAb
B18: DOM-19 (other)
VH: EVQLLESGGGLVQPGGSLRLSCAASGFPFPQYQMAWVRQAPGKGLEWVSMITSDGLDTYYADSVKGRFTISRDNSKNTLYLQMNSLRAEDTAVYYCAKPEPLFDYWGQGTLVTVSS
notes: VH dAb
B19: DOM-41 (other)
VH: EVQLLESGGGLVQPGGSLRLSCAASGFTFFEYEMTWVRQAPGKGLEWVSSIANDGSTTYYADSVKGRFTISRDNSKNTLYLQMNSLRAEDTAVYYCAKPDRQFDYWGQGTLVTVSS
notes: VH dAb
B20: DOM-29 (other)
VH: EVQLLESGGGLVQPGGSLRLSCAASGFTFGRYQMAWVRQAPGKGLEWVSSISSDGGGTYYADSVKGRFTISRDNSKNTLYLQMNSLRAEDTAVYYCAKPGRAFDYWGQGTLVTVSS
notes: VH dAb
B21: DOM-25 (other)
VH: EVQLLESGGGLVQPGGSLRLSCAASGFTFDNYEMTWVRQAPGKGLEWVSTITSQGTSTYYADSVKGRFTISRDNSKNTLYLQMNSLRAEDTAVYYCAKPDRSFDYWGQGTLVTVSS
notes: VH dAb
B22: DOM-14 (other)
VH: EVQLLESGGGLVQPGGSLRLSCAASGFTFWSYDMTWVRQAPGKGLEWVSSIMASGDDTYYADSVKGRFTISRDNSKNTLYLQMNSLRAEDTAVYYCAKWDRDFDYWGQGTLVTVSS
notes: VH dAb
B23: DOM-66 (other)
VH: EVQLLESGGGLVQPGGSLRLSCAASGFTFSDYEMLWVRQAPGKGLEWVSTITSEGHSTYYADSVKGRFTISRDNSKNTLYLQMNSLRAEDTAVYYCAKPGTSFDYWGQGTLVTVSS
notes: VH dAb
B24: DOM-26 (other)
VH: EVQLLESGGGLVQPGGSLRLSCAASGFTFRSYEMTWVRQAPGKGLEWVSSITSDGGTTYYADSVKGRFTISRDNSKNTLYLQMNSLRAEDTAVYYCAKPDKTFDYWGQGTLVTVSS
notes: VH dAb
B25: DOM-58 (other)
VH: EVQLLESGGGLVQPGGSLRLSCAASGFTFEVYTMAWVRQAPGKGLEWVSTIDESGRDTYYADSVKGRFTISRDNSKNTLYLQMNSLRAEDTAVYYCAKPGVWFDYWGQGTLVTVSS
notes: VH dAb
B26: DOM-65 (other)
VH: EVQLLESGGGLVQPGGSLRLSCAASGFTFNEYEMTWVRQAPGKGLEWVSTITSEGSGTYYADSVKGRFTISRDNSKNTLYLQMNSLRAEDTAVYYCAKPNGKFDYWGQGTLVTVSS
notes: VH dAb
B27: DOM-43 (other)
VH: EVQLLESGGGLVQPGGSLRLSCAASGFTFASYEMAWVRQAPGKGLEWVSSIGSDGGPTYYADSVKGRFTISRDNSKNTLYLQMNSLRAEDSAVYYCAKPDRAFDYWGQGTLVTVSS
notes: VH dAb
B28: DOM-67 (other)
VH: EVQLLESGGGLVQPGGSLRLSCAASGFTFSDYEMSWVRQAPGKGLEWVSTIDSDGSFTYYADSVKGRFTISRDNSKNTLYLQMNSLRAEDTAVYYCAKPGVKFDYWGQGTLVTVSS
notes: VH dAb
B29: DOM-28 (other)
VH: EVQLLESGGGLVQPGGSLRLSCAASGFTFGHYDMAWVRQAPGKGLEWVSTISDNGNGTYYADSVKGRFTISRDNSKNTLYLQMNSLRAEDTAVYYCAKPGRDFDYWGQGTLVTVSS
notes: VH dAb
B30: DOM-22 (other)
VH: EVQLLESGGGLVQPGGSLRLSCAASGFTFHNYEMSWVRQAPGKGLEWVSSISSGGSSTYYADSVKGRFTISRDNSKNTLYLQMNSLRAEDTAVYYCAKPGVKFDYWGQGTLVTVSS
notes: VH dAb
B31: DOM-42 (other)
VH: EVQLLESGGGLVQPGGSLRLSCAASGFTFGPYEMTWVRQAPGKGLEWVSSIVGDGLDTYYADSVKGRFTISRDNSKNTLYLQMNSLRAEDTAVYYCAKPDRVFDYWGQGTLVTVSS
notes: VH dAb
B32: DOM-57 (other)
VH: EVQLLESGGGLVQPGGSLRLSCAASGFTFSEYDMYWVRQAPGKGLEWVSWIDTDGGDTYYADSVKGRFTISRDNSKNTLYLQMNSLRAEDTAVYYCAKPGLKFDYWGQGTLVTVSS
notes: VH dAb
B33: DOM-23 (other)
VH: EVQLLESGGGLVQPGGSLRLSCAASGFTFGLYEMTWVRQAPGKGLEWVSSITGDGISTYYADSVKGRFTISRDNSRNTLYLQMNSLRAEDTAVYYCAKAGRKFDYWGQGTLVTVSS
notes: VH dAb
B34: DOM.90 (other)
VL: DIQMTQSPSSLSASVGDRVTITCRASQSISDALFWYQQKPGKAPRLLIYYGSVLQSGVPSRFSGSGSGTDFTLTISSLQPEDFATYYCQQRFQEPVTFGQGTKVEIKR
notes: Vk dAb

The binders below were run against T1, Recombinant human CD40L (human, UniProt P29965 108-261, limits assumed) (assay: CD40L/CD40-Fc receptor binding assay;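 also: plate assay with coated human CD40-Fc, bound ligand detected via HRP anti-biotin antibody and TMB, OD at 450 nm, lower signal indicates stronger inhibition by dAb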).
T1 construct: also called CD40 ligand
T1 sequence (looked up): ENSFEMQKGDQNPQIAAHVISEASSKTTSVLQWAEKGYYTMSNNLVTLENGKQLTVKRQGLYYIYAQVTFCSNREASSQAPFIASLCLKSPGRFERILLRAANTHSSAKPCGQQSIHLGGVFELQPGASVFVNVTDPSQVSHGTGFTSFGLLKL
B1: binds. B2: binds. B3: binds. B4: binds. B5: binds. B6: binds. B7: binds. B8: binds. B9: binds. B10: binds. B11: binds. B12: binds. B13: binds. B14: binds. B15: binds. B16: binds. B17: binds. B18: binds. B19: binds. B20: binds. B21: binds. B22: binds. B23: binds. B24: binds. B25: binds. B26: binds. B27: binds. B28: binds. B29: binds. B30: binds. B31: binds. B32: binds. B33: binds. B34: binds.
